Source: paper PMC4533229 (Journal of Structural Biology, 2015)
One block for each binder: values may come before it.

B1: mouse R-spondin 2 Furin tandem repeat fragment (mRspo2_(Fu1-Fu2), I39-G144) (domain or fragment)
chain: ETGICKGCLSCSKDNGCSRCQQKLFFFLRREGMRQYGECLHSCPSGYYGHRAPDMNRCARCRIENCDSCFSKDFCTKCKVGFYLHRGRCFDECPDGFAPLDETMECVEGT
notes: residues left by the vector after removal of the signal peptide; mouse R-spondin 2, Fu1-Fu2, I39-G144; printed ends ICKGCL...MECVEG; vector residue before the His10 tag; not shown: His10, C-terminal, kept
B3: human LGR5 ectodomain variant (hLGR5_(ecto)), R32-S543 with the loop A488-H537 replaced by an NGNNGD linker (domain or fragment)
chain: ETGRGCPTHCHCEPDGRMLLRVDCSDLGLSELPSNLSVFTSYLDLSMNNISQLLPNPLPSLRFLEELRLAGNALTYIPKGAFTGLYSLKVLMLQNNQLRHVPTEALQNLRSLQSLRLDANHISYVPPSCFSGLHSLRHLWLDDNALTEIPVQAFRSLSALQAMTLALNKIHHIPDYAFGNLSSLVVLHLHNNRIHSLGKKCFDGLHSLETLDLNYNNLDEFPTAIRTLSNLKELGFHSNNIRSIPEKAFVGNPSLITIHFYDNPIQFVGRSAFQHLPELRTLTLNGASQITEFPDLTGTANLESLTLTGAQISSLPQTVCNQLPNLQVLDLSYNLLEDLPSFSVCQKLQKIDLRHNEIYEIKVDTFQQLLSLRSLNLAWNKIAIIHPNAFSTLPSLIKLDLSSNLLSSFPITGLHGLTHLKLTGNHALQSLISSENFPELKVIEMPYAYQCCAFGVCENNGNNGDSVQCSPSGT
notes: residues left by the vector pHLsec after removal of the signal peptide; human LGR5 ectodomain, R32 up to the residue before the replaced loop A488-H537; printed ends RGCPTH...FGVCEN; linker that replaces A488-H537; human LGR5 after the replaced loop; vector residues before the His10 tag; Cloned into pHLsec H10; not shown: His10, C-terminal, kept

Legend:
[1] = biological target: B3; assay: crystal structure; hLGR5_(ecto)–mRspo2_(Fu1-Fu2) complex from coexpression, 5.9 mg/ml; sitting drop; 25% (w/v) PEG 3350, 200 mM lithium sulphate, 100 mM bis-Tris pH 5.5; 2.2 Å; two copies of the complex in the asymmetric unit; conditions: both partners purified
[2] = biological target: T1, hLGR5_(ecto)–mRspo2_(Fu1-Fu2) complex, formed beforehand by coexpression (human | mouse, UniProt O75473 32-487; Q8BFU0 39-144); assay: crystal structure; approximately stoichiometric amounts of the hLGR5_(ecto)–mRspo2_(Fu1-Fu2) complex and mZNRF3_(ecto) mixed in 10 mM Tris/HCl pH 9.0, 1000 mM NaCl, 1.3 mg/ml; crystals in 100 mM ammonium acetate, 600 mM NaCl, 50 mM MES pH 6.0, 5 mM MgSO4; 4.8 Å, anisotropic; 2:2:2 complex generated by crystallographic symmetry; conditions: both partners purified
T1 construct: as the chain of m1: vector residues; as the chain of m1: human LGR5 ectodomain, R32 up to the residue before the replaced loop A488-H537; printed ends RGCPTH...FGVCEN; as the chain of m1: linker that replaces A488-H537; as the chain of m1: human LGR5 after the replaced loop; as the chain of m1: vector residues before the His10 tag; as the chain of m2: vector residues; as the chain of m2: mouse …
T1 chain 1: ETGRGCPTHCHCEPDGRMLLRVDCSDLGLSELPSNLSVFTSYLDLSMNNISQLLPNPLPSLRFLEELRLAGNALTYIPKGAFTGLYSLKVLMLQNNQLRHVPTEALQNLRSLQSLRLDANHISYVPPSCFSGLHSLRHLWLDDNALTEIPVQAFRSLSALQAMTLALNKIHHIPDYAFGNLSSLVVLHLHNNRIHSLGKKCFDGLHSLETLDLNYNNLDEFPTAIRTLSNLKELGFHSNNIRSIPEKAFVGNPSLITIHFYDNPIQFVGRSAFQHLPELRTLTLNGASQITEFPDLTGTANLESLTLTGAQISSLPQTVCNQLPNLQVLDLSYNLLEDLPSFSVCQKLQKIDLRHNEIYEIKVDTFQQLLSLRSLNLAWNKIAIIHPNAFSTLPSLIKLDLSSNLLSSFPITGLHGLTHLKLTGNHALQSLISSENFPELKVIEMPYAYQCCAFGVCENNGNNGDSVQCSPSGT
T1 chain 2: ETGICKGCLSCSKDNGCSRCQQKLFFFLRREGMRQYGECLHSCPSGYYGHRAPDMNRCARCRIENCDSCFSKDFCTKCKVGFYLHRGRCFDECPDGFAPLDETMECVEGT

[3] = biological target: the molecule itself; assay: as above
[4] = biological target: B1; assay: crystal structure; hLGR5_(ecto)–mRspo2_(Fu1-Fu2) complex from coexpression, 5.9 mg/ml; sitting drop; 25% (w/v) PEG 3350, 200 mM lithium sulphate, 100 mM bis-Tris pH 5.5; 2.2 Å; two copies of the complex in the asymmetric unit; conditions: both partners purified
[5] = biological target: the molecule itself; assay: as above

Binder: B1
stoichiometry N [1]: 1

stoichiometry N [2]: 1
B2: mouse ZNRF3 ectodomain (mZNRF3_(ecto)) (domain or fragment, UniProt Q5SSZ7 53-216, looked up)
chain: KETAFVEVVLFESSPSGDYTTHTTGLTGRFSRAGAMLSAEGEIVQMHPLGLCNNNDEEDLYEYGWVGVVKLEQPELDPKPCLTVLGKAKRAVQRGATAVIFDVSENPEAIDQLNQGSEDPLKRPVVYVKGADAIKLMNIVNKQKVARARIQHLPPRQPTEYFDM
notes: mouse ZNRF3 ectodomain; chain C of PDB 4C99 was the search model; source: produced as described (Zebisch et al., 2013); large scale mammalian expression, purified
stoichiometry N [3]: 2

Binder: B3
binding result [4]: binds
stoichiometry N [5]: 2
